We go through 2 substances from publication doi:10.1101/2025.05.22.653117.

Assay [1] concerns the target MbTEC^PH (R28E) (Monosiga brevicollis). As to the kind of experiment: FP. The conditions noted are these: domain or fragment.
Assay [2] has the same target. The assay can be described thus: fluorescence polarisation. Background: Polarisation of emitted light reports the rotation of a fluorescent probe.
Assay [3] concerns the target MbTEC^PH (isolated PH domain of Monosiga brevicollis TEC), wild type, labeled with Atto488 (Monosiga brevicollis). As to the kind of experiment: fluorescence polarisation.

In turn, “MbTEC^32K (SH3-SH2-kinase module of Monosiga brevicollis TEC), wild type” came in with a Kd in assay [1] of 22.4 µM.

The substance “MbTEC^32K (SH3-SH2-kinase module of Monosiga brevicollis TEC), wild type (domain or fragment)” showed a fold weakening against wild-type MbTEC^PH in assay [2] of 5 fold. Also, in assay [3], the Kd amounted to 4 µM.

One may read the Kd as the concentration at which binding is half-saturated.
